Laboratory results as given in article PMC3245471.

How the values were obtained:
[1] = molecular target: tobacco Trx f C71S mutant, His-tagged (Nicotiana tabacum); experiment: non-reducing SDS-PAGE with Western blot
[2] = molecular target: glucose 6-phosphate dehydrogenase from Leuconostoc mesenteroides, guanidine-denatured (Leuconostoc mesenteroides) (UniProt P11411)
[3] = molecular target: tobacco Trx f C19/71S double mutant, His-tagged (Nicotiana tabacum); experiment: non-reducing SDS-PAGE with Western blot

Sequence of UniProt P11411 (P11411 whole entry): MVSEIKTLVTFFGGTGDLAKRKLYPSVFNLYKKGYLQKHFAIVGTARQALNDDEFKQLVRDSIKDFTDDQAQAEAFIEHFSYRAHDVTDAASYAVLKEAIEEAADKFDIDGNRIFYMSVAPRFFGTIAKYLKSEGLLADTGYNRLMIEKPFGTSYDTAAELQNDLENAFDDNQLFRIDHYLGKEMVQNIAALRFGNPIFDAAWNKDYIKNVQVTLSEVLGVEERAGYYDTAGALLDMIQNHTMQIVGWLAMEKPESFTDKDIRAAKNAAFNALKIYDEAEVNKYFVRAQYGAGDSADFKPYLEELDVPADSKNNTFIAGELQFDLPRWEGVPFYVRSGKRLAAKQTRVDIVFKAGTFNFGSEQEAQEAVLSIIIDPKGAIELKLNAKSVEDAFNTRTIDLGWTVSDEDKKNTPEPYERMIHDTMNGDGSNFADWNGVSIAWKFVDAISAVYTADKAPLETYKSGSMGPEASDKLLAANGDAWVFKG

Row | Substance | stoichiometry N [1] | chaperone foldase activity (G6PDH reactivation) relative to wild-type Trx f [2] [% decrease] | stoichiometry N [3]
1 | tobacco Trx f C71S mutant, His-tagged (enzyme) | 2 | 80 | 
2 | tobacco Trx f C19/71S double mutant, His-tagged (enzyme) |  | 80 | 2
